Data from FireProtDB (doi:10.1046/j.1432-1327.1999.00751.x).
Several values for one entry are separate records, joined by “and”; a condition that tells them apart may be missing. Equal values may be shown once.

B1: Azurin, P00282 (parent)
chain: MLRKLAAVSLLSLLSAPLLAAECSVDIQGNDQMQFNTNAITVDKSCKQFTVNLSHPGNLPKNVMGHNWVLSTAADMQGVVTDGMASGLDKDYLKPDDSRVIAHTKLIGSGEKDSVTFDVSKLKEGEQYMFFCTFPGHSALMKGTLTLK

Variants of: B1
Conditions: Pseudomonas aeruginosa (strain ATCC 15692 / DSM 22644 / CIP 104116 / JCM 14847 / LMG 12228 / 1C / PRS 101 / PAO1); pH 7.2; 20 °C; GdnHCl; CD + Fluorescence; Tris-HCl 50 mM; reversible: yes; structure 5AZU; whole UniProt chain shown

For MLRKLAAVSLLSLLSAPLLAAECSVDIQGNDQMQFNTNAITVDKSCKQFTVNLSHPGNLPKNVMGHNWVLSTAADMQGVVTDGMASGLDKDYLKPDDSRVIAHTKLIGSGEKDSVTFDVSKLKEGEQYMSFCTFPGHSALMKGTLTLK [F130S], the “ddG of mutation (higher = less stable)” value was 4.6 kcal/mol and 3.7 kcal/mol, the denaturant m value was 3.6 kcal/mol/M and 3.2 kcal/mol/M and the “denaturant midpoint (higher = more stable)” value was 1.24 M and 0.86 M. For the same variant, the unfolding free energy was 4.8 kcal/mol and 2.7 kcal/mol.

In the case of MLRKLAAVSLLSLLSAPLLAAECSVDSQGNDQMQFNTNAITVDKSCKQFTVNLSHPGNLPKNVMGHNWVLSTAADMQGVVTDGMASGLDKDYLKPDDSRVIAHTKLIGSGEKDSVTFDVSKLKEGEQYMFFCTFPGHSALMKGTLTLK [I27S], the “ddG of mutation (higher = less stable)” value is reported as 3.6 kcal/mol and 3 kcal/mol, the denaturant m value is reported as 3.6 kcal/mol/M and 3.4 kcal/mol/M and the “denaturant midpoint (higher = more stable)” value is reported as 1.61 M and 1.02 M. For the same variant, the unfolding free energy was 5.8 kcal/mol and 3.4 kcal/mol.
